{
  "source": "patent CN114106160A",
  "target": "SARS-CoV-2 S1蛋白 (ACRO Biosystems) (SARS-CoV-2) (UniProt P0DTC2)",
  "test": "BLI, biotinylated SARS-CoV-2 S1 on SA sensor, antibody as analyte, 1:1 model",
  "data": [
    {"substance": "人源抗体CR3022 (antibody)", "values": [
      {"measurement": "Kd", "result": 0.0866, "unit": "nM"},
      {"measurement": "koff", "result": "1.9e-05", "unit": "s⁻¹"},
      {"measurement": "kon", "result": 220000, "unit": "M⁻¹ s⁻¹"}
    ]}
  ]
}
